In this data set the test system is Frog Prince transposase (consensus, FP) (Rana pipiens). The experiment in a line: cell_activity. The following applies: G418-resistant colony increase in HeLa cells.
Chain of Frog Prince transposase (consensus, FP) (Rana pipiens) (chain, as listed by the source): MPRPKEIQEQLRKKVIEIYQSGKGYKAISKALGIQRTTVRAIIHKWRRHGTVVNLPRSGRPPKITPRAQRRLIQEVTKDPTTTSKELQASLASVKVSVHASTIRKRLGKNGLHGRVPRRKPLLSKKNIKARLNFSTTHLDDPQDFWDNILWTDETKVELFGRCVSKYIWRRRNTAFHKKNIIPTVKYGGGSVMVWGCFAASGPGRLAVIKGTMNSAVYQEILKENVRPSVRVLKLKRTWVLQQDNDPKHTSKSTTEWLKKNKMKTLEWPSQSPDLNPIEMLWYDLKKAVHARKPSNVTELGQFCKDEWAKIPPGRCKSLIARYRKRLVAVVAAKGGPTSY

Consider Txr transposon (pTxr-neo), for which the activity (cross-mobilization) was determined as 5 fold. The substance “CAGTGGTGTGAAAAAGTGTTTGCCCCCTTCCTCATTTCCTGTTCCTTTGCATGTTTGTCACACTTAAGTGTTTCGGAACATCAAACCAATTTAAACAATAGTCAAGGACAACACAAGTAAACACAAAATGCAATTTGTAAATGAAGGTGTTTATTATTAAAGGTGAAAAAAAATCCAAACCATCATGGCCCTGTGTGAAAAAGTGATTGCCCCCCTTGTTAAAACATACTATAACTGTGGTTGTCCACAC (double strand) [Frog Prince transposon inverted repeat (pFrogPrince-neo)]” had an activity (transposition) of 17 fold.
